Series [1] can be described thus: Release of HRP and Lysozyme from silk films, analyzed by biological potency tests (FIG. 5). Type of series: physicochemical. The conditions noted are these: for release / released protein-drug activity: methanol treated films.
Series [2] can be described thus: Protein activity after water vapor treatment of drug loaded films. It is filed as physicochemical. The note with it: water vapor treatment of drug loaded films at 25° C. over a saturated Na2SO4 solution for 24 hours. The procedure:
Conclusion: Drug release from silk films was a function of the drugs molecular weight and film treatment with methanol. […] This decrease of activity was correlated to methanol sensitivity of Lys (and to a lesser extent for HRP). Alternatively, crystallinity can be induced by water vapor treatment (data not shown) of drug loaded films at 25° C. over a saturated Na2SO4 solution for 24 hours.

The mark [3] stands for this setting: loaded films exposed to methanol.

Entries after “also recorded” stand apart in the source; their conditions may differ.

The source of these data is patent publication US10548981B2, “Silk-based drug delivery system” (TRUSTEES OF TUFTS COLLEGE, priority 2004, dated 2020).

Lysozyme: the “release / released protein-drug activity” value in series [1] (listed as Lys) is given as “did not release substantial amounts over time; also recorded: substantially less protein-drug activity”. For the same substance, the protein activity entry in series [2] was “No loss of protein activity”.
As to horseradish peroxidase [HRP], in series [1] (setting [3]), the continuous release until worked out at 23 days, the initial burst result is on record as “No initial burst” and the start of release is 5 days. In series [1], the “release / released protein-drug activity” value was “substantially less protein-drug activity”. For the same substance, in series [1] (native silk films), the “initial burst, of the total loading” value worked out at 5% and the lag phase result is “two”. Also, the protein activity result in series [2] is reported as “No loss of protein activity”.
